Changes are numbered by the printed parent chain.
T1: human common cytokine receptor γ-chain (IL-2Rγ) (human, UniProt P31785 23-262, limits assumed)
T1 construct: Recombinant human IL-2Rγ protein, coated (ELISA) or amine-coupled to a CM5 chip (SPR); also called hu IL-2R; CD132
T1 sequence: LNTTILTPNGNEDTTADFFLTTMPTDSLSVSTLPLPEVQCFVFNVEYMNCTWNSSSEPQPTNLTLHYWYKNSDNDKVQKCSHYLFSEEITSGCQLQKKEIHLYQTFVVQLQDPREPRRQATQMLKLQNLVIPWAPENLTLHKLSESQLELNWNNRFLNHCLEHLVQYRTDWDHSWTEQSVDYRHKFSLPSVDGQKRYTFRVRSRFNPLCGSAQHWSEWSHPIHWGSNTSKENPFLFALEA

T2: mouse common cytokine receptor γ-chain (IL-2Rγ) (mouse, UniProt P34902 23-263, limits assumed)
T2 construct: Recombinant mouse IL-2Rγ protein; also called mo IL-2R; mouse IL-2R gamma
T2 sequence (looked up): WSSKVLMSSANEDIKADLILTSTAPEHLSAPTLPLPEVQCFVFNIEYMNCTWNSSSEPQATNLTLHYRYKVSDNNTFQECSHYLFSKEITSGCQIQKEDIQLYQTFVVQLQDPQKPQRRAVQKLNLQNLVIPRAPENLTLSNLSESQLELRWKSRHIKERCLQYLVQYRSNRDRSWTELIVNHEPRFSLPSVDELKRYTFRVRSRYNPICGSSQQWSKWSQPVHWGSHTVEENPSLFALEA

T3: human IL-2Rβ (human, UniProt P14784 27-240, limits assumed)
T3 construct: Recombinant human IL-2Rβ protein, coated on ELISA plates or immobilized on a CM5 chip; also called hu IL-2R; interleukin 2 receptor β-chain
T3 sequence: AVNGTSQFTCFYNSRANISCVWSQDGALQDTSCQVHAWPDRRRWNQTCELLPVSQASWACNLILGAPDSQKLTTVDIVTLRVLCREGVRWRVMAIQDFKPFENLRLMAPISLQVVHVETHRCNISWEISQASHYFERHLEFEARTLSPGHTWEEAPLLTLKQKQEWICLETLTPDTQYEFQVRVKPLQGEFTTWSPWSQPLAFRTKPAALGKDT

B1: FJ1427_P035MP07C10 (VHH)
VHH: QVQLVESGGGLVQAGGSLRLSCAASGRSLSRDAMGWFRQAPGKEREFVAVMSWGGDTFYTDSVEGRFTFSRDNAKNAVYLEMNDLQPEDTAVYYCAAAPTSFATTAYSSSNSYSYWGRGTQVTVSS
notes: tested as periplasmic extract; also called Clone nr; 651
B2: FJ1427_P035MP07E10 (VHH)
VHH: QVQLVESGGGLVQAGGSLRLSCAASGRTLSRYAMGWFRQAPGKEREFVTANSWGGDTYYADSVQGRFTFSRDNAKNTVYLQMNSLQPEDTAVYYCAAAPTSFATTAYSSSNSYAYWGQGTQVTVSS
notes: tested as periplasmic extract; also called Clone nr; 653
B3: FJ1427_P035MP06H02 (VHH)
VHH: QVQLVESGGGLVQAGGSLRLSCAVSGDVFVRYTMAWFRQAPGKEREFVASVTDSGRTTEYVDSVKGRFTVSRDNAKNTAYLQMNNLKPEDTAVYYCAANTDYFQIRSLDLNTWGQGTQVTVSS
notes: Soluble VHH in periplasmic extract (P.E.); also called Clone nr
B4: FJ1427 P035MP06B06 (VHH)
VHH: B3 VHH with Q1E, S17P
notes: as for B3
B5: FJ1427 P035MP06C09 (VHH)
VHH: B3 VHH with Q1E, V24A, A40T, A79V, D109R, L110A
notes: as for B3
B6: FJ1427 P035MP06D08 (VHH)
VHH: B3 VHH with S123L
notes: Soluble VHH in periplasmic extract (P.E.); also called Clone nr; 540
B7: FJ1427 P035MP06E03 (VHH)
VHH: B3 VHH with Q1E, V24A, E59D, A79V, R106K, L110R, S123P
notes: as for B3
B8: FJ1427 P035MP06E12 (VHH)
VHH: B3 VHH with V24A, E59D, A79V, N85A, R106K
notes: as for B3
B9: FJ1427 P035MP06F04 (VHH)
VHH: B3 VHH with A79V, N85S, D109R, L110A
notes: Soluble VHH in periplasmic extract (P.E.); also called Clone nr; 510
B10: FJ1427 P035MP06G09 (VHH)
VHH: B3 VHH with A14P, V24A, E59D, A79V, R106K, L110R
notes: Soluble VHH in periplasmic extract (P.E.); also called Clone nr; 551
B11: FJ1427_P035MP06A03 (VHH)
VHH: B3 VHH with Q1E, V24A, E59D, A79V, D109E, L110F
notes: as for B3
B12: FJ1427_P035MP06A05 (VHH)
VHH: B3 VHH with E59D, D62H, A79V, R106K, L110A
notes: as for B3
B13: FJ1427_P035MP06A06 (VHH)
VHH: B3 VHH with V2L, S21A, V24L, E59D, D62A, K65Q, A75N, A79V, N85S, L110R
notes: as for B3
B14: FJ1427_P035MP06A09 (VHH)
VHH: B3 VHH with Q1E, V24A, E59D, A79V, R106K, L110R
notes: as for B3
B15: FJ1427_P035MP06B05 (VHH)
VHH: B3 VHH with V24A, E59D, A79V, D109E, L110F
notes: as for B3
B16: FJ1427_P035MP06B07 (VHH)
VHH: B3 VHH with Q1E
notes: Soluble VHH in periplasmic extract (P.E.); also called Clone nr; 530
B17: FJ1427_P035MP06B09 (VHH)
VHH: B3 VHH with F29L
notes: Soluble VHH in periplasmic extract (P.E.); also called Clone nr; 546
B18: FJ1427_P035MP06B10 (VHH)
VHH: B3 VHH with V24A, F29L, V93I
notes: Soluble VHH in periplasmic extract (P.E.); also called Clone nr; 554
B19: FJ1427_P035MP06C04 (VHH)
VHH: B3 VHH with V5Q, V24A, E59D, A79V, D109E, L110F
notes: as for B3
B20: FJ1427_P035MP06C05 (VHH)
VHH: B3 VHH with Q1E, A23V, E44G, S50V, A79V, L108V, L110N, T112A
notes: as for B3
B21: FJ1427_P035MP06C06 (VHH)
VHH: B3 VHH with V5Q, A23V, S50V, A79V, L108V, L110N, T112A
notes: Soluble VHH in periplasmic extract (P.E.); also called Clone nr; 523
B22: FJ1427_P035MP06C08 (VHH)
VHH: B3 VHH with V24A, V93I
notes: as for B3
B23: FJ1427_P035MP06D03 (VHH)
VHH: B3 VHH with V24A, V93I
notes: Soluble VHH in periplasmic extract (P.E.); also called Clone nr; 500
B24: FJ1427_P035MP06D04 (VHH)
VHH: B3 VHH with V5Q, A23V, S50V, A79V, L108V, L110N, T112A
notes: as for B3
B25: FJ1427_P035MP06D05 (VHH)
VHH: B3 VHH with A79V, N85S, D109R, L110A
notes: as for B3
B26: FJ1427_P035MP06D06 (VHH)
VHH: B3 VHH with Q1E
notes: as for B3
B27: FJ1427_P035MP06D07 (VHH)
VHH: B3 VHH with V24A, V93I
notes: Soluble VHH in periplasmic extract (P.E.); also called Clone nr; 532
B28: FJ1427_P035MP06E06 (VHH)
VHH: B3 VHH with Q1E, S21F, N77D
notes: Soluble VHH in periplasmic extract (P.E.); also called Clone nr; 525
B29: FJ1427_P035MP06E08 (VHH)
VHH: B3 VHH with Q1E
notes: as for B3
B30: FJ1427_P035MP06F02 (VHH)
VHH: B3 VHH with V5Q, V24A, E59D, A79V, N85A, R106K
notes: as for B3
B31: FJ1427_P035MP06F06 (VHH)
VHH: B3 VHH with V24A, E59D, A79V, D109E, L110F
notes: as for B3
B32: FJ1427_P035MP06F08 (VHH)
VHH: B3 VHH with V24A, D109N
notes: Soluble VHH in periplasmic extract (P.E.); also called Clone nr; 542
B33: FJ1427_P035MP06G02 (VHH)
VHH: B3 VHH with Q1E, A23V, G42R, S50V, A79V, L108V, L110N, T112A
notes: as for B3
B34: FJ1427_P035MP06G03 (VHH)
VHH: B3 VHH with A23V, S50V, A79V, L108V, L110N, T112A
notes: Soluble VHH in periplasmic extract (P.E.); also called Clone nr; 503
B35: FJ1427_P035MP06G04 (VHH)
VHH: B3 VHH with V5Q, A23V, S50V, A79V, L108V, L110N, T112A
notes: as for B3

target: T1, human common cytokine receptor γ-chain …; assay: P.E. off-rate SPR
How it was run: (§1)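 Immobilised receptor density: ~2500 RU (CM5, amine coupling). Analyte: VHH-containing P.E., 30 uL/min. Read-out: off-rate over 120s.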

| Binder | koff |
| --- | --- |
| B1 | 0.00176 s⁻¹ |
| B2 | 0.0033 s⁻¹ |

target: T2, mouse common cytokine receptor γ-chain …; assay: P.E. off-rate SPR
How it was run: as §1

| Binder | koff |
| --- | --- |
| B1 | 0.0132 s⁻¹ |
| B2 | 0.107 s⁻¹ |

target: T1, human common cytokine receptor γ-chain …; assay: P.E. binding ELISA
How it was run: (§2)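 Direct-coat ELISA: receptor protein o/n 4° C → 4% Marvel/PBS block 1 h → P.E. 1:5 in 1% Marvel/PBS, 1 h → OD450 vs neg. controls.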

| Binder | PE binding ELISA OD |
| --- | --- |
| B1 | 0.424 OD450 nm |
| B2 | 0.434 OD450 nm |

target: T2, mouse common cytokine receptor γ-chain …; assay: P.E. binding ELISA
How it was run: as §2

| Binder | PE binding ELISA OD |
| --- | --- |
| B1 | 0.074 OD450 nm |
| B2 | 0.047 OD450 nm |

target: T3, human IL-2Rβ; assay: P.E. binding ELISA, human IL-2Rβ coated
Protocol: In a binding ELISA, human or mouse IL-2Rα, IL-2Rβ and IL-2Rγ proteins were coated directly on maxisorp microtiter plates overnight at 4° C. Free binding sites were blocked using 4% Marvel in PBS for 1 hour. Next, 1:5 dilution of P.E. in 1% Marvel/PBS were added to wells and incubated for 1 hour. […] Binding specificity was determined based on O.D. at 450 nm values compared to negative controls.

| Binder | OD450 nm (P.E. binding ELISA) |
| --- | --- |
| B3 | 0.371 OD450 nm |
| B4 | 1.42 OD450 nm |
| B5 | 0.69 OD450 nm |
| B6 | 0.836 OD450 nm |
| B7 | 0.57 OD450 nm |
| B8 | 0.271 OD450 nm |
| B9 | 1.33 OD450 nm |
| B10 | 0.202 OD450 nm |
| B11 | 0.148 OD450 nm |
| B12 | 0.149 OD450 nm |
| B13 | 0.3 OD450 nm |
| B14 | 0.192 OD450 nm |
| B15 | 0.617 OD450 nm |
| B16 | 1.01 OD450 nm |
| B17 | 0.329 OD450 nm |
| B18 | 0.264 OD450 nm |
| B19 | 0.187 OD450 nm |

| Binder | OD450 nm (P.E. binding ELISA) |
| --- | --- |
| B20 | 0.58 OD450 nm |
| B21 | 0.255 OD450 nm |
| B22 | 0.297 OD450 nm |
| B23 | 1.02 OD450 nm |
| B24 | 0.189 OD450 nm |
| B25 | 0.304 OD450 nm |
| B26 | 0.289 OD450 nm |
| B27 | 0.957 OD450 nm |
| B28 | 1.45 OD450 nm |
| B29 | 0.359 OD450 nm |
| B30 | 0.278 OD450 nm |
| B31 | 0.224 OD450 nm |
| B32 | 0.343 OD450 nm |
| B33 | 0.677 OD450 nm |
| B34 | 0.267 OD450 nm |
| B35 | 0.213 OD450 nm |

target: T3, human IL-2Rβ; assay: SPR off-rate ranking of P.E., human IL-2Rβ immobilized
Protocol: SPR was performed to determine dissociation rates using Biacore 3000 instrument (GE Healthcare). Briefly, human and mouse IL-2R proteins were immobilized on carboxylmethyl dextran sensor chip (CM5) at approximately 2500 RUs using amine coupling in acetate buffer (GE Healthcare). The VHH-containing P.E. were loaded with a flow rate of 30 uL/min and the off-rates were measured over a 120s period.

| Binder | koff |
| --- | --- |
| B3 | 0.000171 s⁻¹ |
| B4 | 0.000324 s⁻¹ |
| B5 | 0.00101 s⁻¹ |
| B6 | 0.000209 s⁻¹ |
| B7 | 0.000745 s⁻¹ |
| B8 | 0.000496 s⁻¹ |
| B9 | 0.000487 s⁻¹ |
| B10 | 0.000726 s⁻¹ |
| B11 | 0.000882 s⁻¹ |
| B12 | 0.00118 s⁻¹ |
| B13 | 0.000631 s⁻¹ |
| B14 | 0.000947 s⁻¹ |
| B15 | 0.000871 s⁻¹ |
| B16 | 0.000285 s⁻¹ |
| B17 | 0.00225 s⁻¹ |
| B18 | 0.00223 s⁻¹ |
| B19 | 0.00084 s⁻¹ |

| Binder | koff |
| --- | --- |
| B20 | 0.000751 s⁻¹ |
| B21 | 0.000698 s⁻¹ |
| B22 | 0.000335 s⁻¹ |
| B23 | 0.00029 s⁻¹ |
| B24 | 0.000621 s⁻¹ |
| B25 | 0.000483 s⁻¹ |
| B26 | 0.00029 s⁻¹ |
| B27 | 0.000346 s⁻¹ |
| B28 | 0.000241 s⁻¹ |
| B29 | 0.000267 s⁻¹ |
| B30 | 0.00037 s⁻¹ |
| B31 | 0.000935 s⁻¹ |
| B32 | 0.000274 s⁻¹ |
| B33 | 0.000619 s⁻¹ |
| B34 | 0.000586 s⁻¹ |
| B35 | 0.000641 s⁻¹ |
